The numbers were not newly measured in article PMC10167482, which cites them from elsewhere.

For orientation: Kd means the concentration at which binding is half-saturated.

The target of one series is IFNAR1 (Homo sapiens) (UniProt P17181).
The target of the next series is IFNAR2 (Homo sapiens) (UniProt P48551).
Chain of UniProt P48551 (P48551 27-243): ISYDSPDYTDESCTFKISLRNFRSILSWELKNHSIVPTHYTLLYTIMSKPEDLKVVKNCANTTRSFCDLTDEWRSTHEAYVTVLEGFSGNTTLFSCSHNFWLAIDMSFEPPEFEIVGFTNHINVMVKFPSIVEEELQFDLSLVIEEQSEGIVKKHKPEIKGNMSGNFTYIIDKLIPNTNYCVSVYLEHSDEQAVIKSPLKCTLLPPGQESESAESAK

Chain of UniProt P17181 (P17181 28-436): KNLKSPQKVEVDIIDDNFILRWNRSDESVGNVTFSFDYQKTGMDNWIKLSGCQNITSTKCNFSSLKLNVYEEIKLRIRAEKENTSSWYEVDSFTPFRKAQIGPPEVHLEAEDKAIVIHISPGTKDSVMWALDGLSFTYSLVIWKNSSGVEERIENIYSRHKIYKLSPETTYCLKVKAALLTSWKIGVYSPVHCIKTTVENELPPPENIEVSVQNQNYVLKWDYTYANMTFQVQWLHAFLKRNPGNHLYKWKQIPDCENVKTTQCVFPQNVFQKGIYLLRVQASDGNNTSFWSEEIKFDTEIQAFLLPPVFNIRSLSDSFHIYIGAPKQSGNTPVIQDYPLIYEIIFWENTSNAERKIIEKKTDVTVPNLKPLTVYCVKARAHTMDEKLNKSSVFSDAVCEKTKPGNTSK

Consider IFN-β (from UniProt P01574), for which the values for the equilibrium dissociation constant (Kd) with IFNAR1 (Homo sapiens) and with IFNAR2 (Homo sapiens) were 50 nM and 0.2 nM, respectively.
